Test results from paper PMC2923636 (Structure (London, England : 1993), 2009).

Target: T1, AIRE-PHD1 P326L mutant (human, UniProt O43918 293-346, P326L)
T1 sequence (looked up): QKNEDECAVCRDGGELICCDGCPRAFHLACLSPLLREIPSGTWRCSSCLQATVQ
Experiment: NMR titration

binding result: binds
Binder: ARTKQTARKST (peptide, UniProt P68431 2-12, looked up) [unmodified histone H3 peptide (residues 1-11)]
